This is an account of results in patent US20220332804A1 (CSL INNOVATION, published 2022).

What all share (assay): SPR, KD relative to WT C2;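 further: biacore SPR at 37 °C, anti-C2 mAbs captured via immobilised goat anti-human IgG, C2 alanine or serine surface mutants as analytes, 1:1 model fitted, double-referenced sensograms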
One experiment has as its target T1, human C2 K415A (human, UniProt P06681 21-752).
T1 sequence: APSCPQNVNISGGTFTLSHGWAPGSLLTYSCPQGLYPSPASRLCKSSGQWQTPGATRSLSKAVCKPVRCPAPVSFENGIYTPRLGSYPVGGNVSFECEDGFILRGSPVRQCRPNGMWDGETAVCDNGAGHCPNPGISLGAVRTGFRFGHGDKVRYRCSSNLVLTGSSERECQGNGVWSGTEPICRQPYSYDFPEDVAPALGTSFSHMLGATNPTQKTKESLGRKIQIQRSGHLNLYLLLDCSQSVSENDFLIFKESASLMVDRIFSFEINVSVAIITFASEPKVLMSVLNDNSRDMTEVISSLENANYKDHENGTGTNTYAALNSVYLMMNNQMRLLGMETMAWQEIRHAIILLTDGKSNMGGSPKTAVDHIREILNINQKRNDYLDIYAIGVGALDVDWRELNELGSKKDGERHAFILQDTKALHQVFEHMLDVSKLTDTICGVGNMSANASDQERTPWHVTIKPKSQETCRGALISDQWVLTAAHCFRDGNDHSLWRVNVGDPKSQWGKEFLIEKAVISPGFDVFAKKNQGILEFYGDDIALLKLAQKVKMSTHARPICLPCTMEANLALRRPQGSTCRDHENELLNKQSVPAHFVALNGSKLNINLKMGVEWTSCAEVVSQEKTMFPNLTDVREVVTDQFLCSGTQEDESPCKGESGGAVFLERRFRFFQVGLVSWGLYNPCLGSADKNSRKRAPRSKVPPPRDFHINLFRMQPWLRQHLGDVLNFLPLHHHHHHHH

The target of the next experiment is T2, human C2 I438A (human, UniProt P06681 21-752).
T2 sequence: T1 sequence with A395K, I418A

The target of the next experiment is T3, human C2 E532A (human, UniProt P06681 21-752).
T3 sequence: T1 sequence with A395K, E512A

A further experiment addresses T4, human C2 D561A (human, UniProt P06681 21-752).
T4 sequence: T1 sequence with A395K, D541A

Substitutions are numbered along the chain they refer to.

B1: RF16-226 (antibody, human IgG4 S228P, lambda)
heavy: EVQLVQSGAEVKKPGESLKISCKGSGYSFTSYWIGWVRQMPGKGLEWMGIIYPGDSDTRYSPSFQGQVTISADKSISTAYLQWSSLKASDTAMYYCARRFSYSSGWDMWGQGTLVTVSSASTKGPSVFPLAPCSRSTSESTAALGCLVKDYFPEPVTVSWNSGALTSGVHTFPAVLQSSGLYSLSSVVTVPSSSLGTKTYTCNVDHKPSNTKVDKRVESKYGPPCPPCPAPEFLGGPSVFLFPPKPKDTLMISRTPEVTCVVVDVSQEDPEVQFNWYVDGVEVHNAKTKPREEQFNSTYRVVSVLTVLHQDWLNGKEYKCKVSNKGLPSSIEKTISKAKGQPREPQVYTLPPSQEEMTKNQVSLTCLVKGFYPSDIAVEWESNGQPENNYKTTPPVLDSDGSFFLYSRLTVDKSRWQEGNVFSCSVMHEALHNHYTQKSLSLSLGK
light: SYELTQPPSVSVSPGQTARITCSGDALTSKYVAWYQQKSGLAPLLVIYEDTRRPSGIPAKFSGSSSGSVATLTISGAHGDDEADYYCYSTDASGHQRVFGGGTKLTVLSQPKAAPSVTLFPPSSEELQANKATLVCLISDFYPGAVTVAWKADGSPVKAGVETTKPSKQSNNKYAASSYLSLTPEQWKSHRSYSCQVTHEGSTVEKTVAPTECS
notes: pH-dependent anti-C2 antibody from a phage display library; also called WT
As to B1, the Fold diff is 1 fold in the experiment with human C2 K415A, 1 fold in the experiment with human C2 I438A, 2 fold with human C2 E532A and 10 fold with human C2 D561A.
